Reference: patent US20240287208A1 (CONCEPT TO MEDICINE BIOTECH, published 2024)

T1: human OX40 protein (human, UniProt P43489 29-216, limits assumed)
T1 sequence (looked up): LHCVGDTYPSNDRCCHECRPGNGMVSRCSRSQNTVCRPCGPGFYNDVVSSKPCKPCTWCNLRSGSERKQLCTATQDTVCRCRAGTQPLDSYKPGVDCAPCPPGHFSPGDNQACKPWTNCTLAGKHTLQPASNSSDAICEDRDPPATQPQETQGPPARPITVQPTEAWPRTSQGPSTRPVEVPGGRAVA


What was measured:
human OX40 protein = molecular target: T1, human OX40 protein; assay: ELISA, plate-coated protein
Procedure: (§1) To evaluate the cross reactivity of chimeric anti-CD40 antibodies to other family members of TNF receptors, the ELISA binding towards human 4-1BB and human OX40 were performed.
(§2) Briefly, microtiter plates were coated with human 4-1BB protein or human OX40 protein at 1 μg/ml in PBS, 100 μl/well at 4° C. overnight, then blocked with 150 μl/well of 1% BSA. Ten-fold dilutions of 42p155, 2p834, 2p931, 42p655, 2p1294, 2p957, 42p495, 3p78, 2p415, 2p442, 2p551, 2p80 and 2p1130 antibodies starting from 100 nM were added to each well and incubated for 1 hour at RT. The plates were washed with PBS/Tween and then incubated with Anti-Human IgG (H&L) (GOAT) Antibody Peroxidase Conjugated for 30 mins at RT. After washing, the plates were developed with TMB substrate and analyzed by spectrophotometer at OD 450 nm.

human 4-1BB protein = molecular target: T2, human 4-1BB protein (human, UniProt Q07011 24-186); assay: ELISA, plate-coated protein
T2 construct: also called 4-IBB
Procedure: as §1, §2

human CD40-His protein [1] = molecular target: T3, human CD40-His protein (human, UniProt P25942 21-193); assay: ELISA, plate-coated human CD40-His
T3 construct: His-tagged recombinant protein; also called human CD40-his tag; recombinant CD40 protein
T3 sequence (P25942 21-193 limits assumed): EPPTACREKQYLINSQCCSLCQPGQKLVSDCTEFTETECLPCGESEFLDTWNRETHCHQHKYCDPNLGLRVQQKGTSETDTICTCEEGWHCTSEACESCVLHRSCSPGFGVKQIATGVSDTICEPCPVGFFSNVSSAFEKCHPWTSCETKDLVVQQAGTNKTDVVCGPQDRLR
Procedure: (§3) To evaluate the binding activity of clones 42p155, 2p834, 2p931, 42p655, 2p1294, 2p957, 42p495, 3p78, 2p415, 2p442, 2p551, 2p80 and 2p1130, the chimeric monospecific antibody (mAb) from these clones were subjected to ELISA test, along with selicrelumab, the clinical benchmark anti-CD40 agonist antibodies.
as §2, with “human CD40-His” for “human 4-1BB protein or human OX40”, “at 1.0” for “at 1”, “150 µl/well” for “150 μl/well”

[2] = molecular target: T4, human CD40 on the cell surface (human, UniProt P25942 21-277); assay: cell-based or functional assay
T4 sequence (P25942 21-277): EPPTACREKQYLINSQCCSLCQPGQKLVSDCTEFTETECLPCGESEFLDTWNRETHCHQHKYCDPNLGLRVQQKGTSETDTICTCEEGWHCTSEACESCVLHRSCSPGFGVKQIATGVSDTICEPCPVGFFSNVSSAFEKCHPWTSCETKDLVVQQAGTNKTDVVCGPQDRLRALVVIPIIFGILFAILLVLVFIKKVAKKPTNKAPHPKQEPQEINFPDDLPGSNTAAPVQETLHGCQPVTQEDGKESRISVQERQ

[3] = molecular target: T4, human CD40 on the cell surface; assay: FACS, Jurkat cells overexpressing human CD40, PE anti-human IgG, MFI
Procedure: (§4) To evaluate the binding affinity of humanized 2p442 monoclonal antibodies to cell surface CD40, 2p442z8, 2p442z9, 2p442z10 and parental 2p442 were tested in Jurkat cell lines that overexpressed CD40 by FACS. A total number of 1×10⁵ Jurkat-CD40 cells in each well were incubated with 3-fold serially diluted antibodies starting from 100 nM for 30 minutes at 4° C. in FACS buffer. After wash by FACS buffer, PE conjugated-anti-human IgG antibody was added to each well and incubated at 4° C. for 30 minutes. After wash, MFI of PE was evaluated by MACSQuant Analyzer 16.

[4] = molecular target: T5, cynomolgus CD40-His protein (cynomolgus, UniProt G7PG38 21-193); assay: ELISA, plate-coated cynomolgus CD40-His
T5 construct: His-tagged recombinant protein; also called cyno CD40 antigen
Procedure: as §3
as §2, with “The binding affinity of these clones to cynomolgus CD40 was also tested. Microtiter plates” for “Briefly, microtiter plates”, “with cynomolgus CD40-His” for “with human 4-1BB protein or human OX40”, “at 1.0” for “at 1”, “100 µl/well” for “100 μl/well”, “150 µl/well” for “150 μl/well”, “nm. As shown in FIG. 1B and Table 2, all these clones bound to cynomolgus CD40 at high activity, showing good cross-reactivity between human and cynomolgus CD40 proteins.” for “nm.”

human CD40-His protein [5] = molecular target: T3, human CD40-His protein; assay: BLI Octet RED96e, antibody captured on AHC, CD40-His as analyte
Procedure: (§5) The binding of the humanized 42p155 and 2p442 antibodies to recombinant human CD40 protein (human CD40-his tag) was tested by Biacore and Octet, respectively, using a capture method.
For humanized 2p442 monoclonal antibodies, 2p442z8, 2p442z9 and 2p442z10 were captured using AHC biosensor. A serial dilution of human CD40-his tag protein was incubated with captured antibody for 5 mins. The antigen was allowed to dissociate for 10 min. All the experiments were carried out on an Octet RED96e. Data analysis was carried out using Octet Analysis Studio 12.2 software.

human CD40-His protein [6] = molecular target: T3, human CD40-His protein; assay: SPR Biacore T200, antibody captured on Protein A, CD40-His as analyte
Procedure: as §5
For humanized 42p155 monoclonal antibodies, 42p155z2 and 42p155z3 were captured using Protein A chip. A serial dilution of human CD40-his tag protein was injected over captured antibody for 3 mins at a flow rate of 10 μl/min. The antigen was allowed to dissociate for 6 min. All the experiments were carried out on a Biacore T200. Data analysis was carried out using Biacore T200 evaluation software.

[7] = molecular target: T4, human CD40 on the cell surface; assay: FACS, Jurkat cells overexpressing human CD40, PE anti-human IgG, MFI; remark: listed apart in the source
Procedure: as §4, with “5T4-CD40 bispecific” for “humanized 2p442 monoclonal”, “bispecific antibodies with formats of b 1 (42p155z2), b12 (42p155z2), b13 (42p155z2), b16 (42p155z2), b17 (42p155z2)” for “2p442z8, 2p442z9, 2p442z10”, “b18 (2p1130)” for “parental 2p442”, “5-fold” for “3-fold”

| EC50 (read off the curve) [3] [µM] | Kd (human CD40-His protein [5]) [µM] | koff (human CD40-His protein [5]) [s⁻¹] | kon (human CD40-His protein [5]) [M⁻¹ s⁻¹] | Binder | further results |
| --- | --- | --- | --- | --- | --- |
| ~0.0002 | 0.0504 | 0.0269 | 534000 | 2p442 chimeric monospecific antibody (antibody, V domains shown, Chimeric monospecific antibody; also called parental 2p442) VH: QVQLVESGGGLVQPGGSLRLSCVASGFTLDYFAIGWFRQAPGKEREGVSCISGGGSTRYADSVKGRFTISRDNAKNTVYLQMNSLTPEDTAVYYCAAARLLSRNCVPRDSGSWGQGTQVTVSS | binding result (human OX40 protein): no binding (tested: 100 nM (highest concentration)); binding result (human 4-1BB protein): no binding (tested: 100 nM (highest concentration)); EC50 (human CD40-His protein [1]): 0.00195 µM; CD40 NF-κB luciferase reporter (Jurkat), RLU [2]: > 10 nM; EC50 [4]: 0.0003 µM |
| ~0.0002 | 0.0348 | 0.0125 | 357000 | 2p442z9 humanized monoclonal antibody (antibody, V domains shown, Humanized monoclonal antibody captured on AHC biosensor; also called VHHz9) VH: QVQLVESGGGLVKPGGSLRLSCAASGFTFDYFAIGWFRQAPGKELEGVSCISGGGSTRYADSVKGRFTISRDNAKNSVYLQMNSLRPEDTAVYYCARARLLSRNCVPRDSGSWGQGTLVTVSS | – |
| ~0.0002 | 0.0567 | 0.0119 | 210000 | 2p442z8 humanized monoclonal antibody (antibody, V domains shown, Humanized monoclonal antibody captured on AHC biosensor; also called VHHz8) VH: QVQLVESGGGLVKPGGSLRLSCAASGFTFDYFAIGWFRQAPGKGREGVSCISGGGSTRYADSVKGRFTISRDNAKNSVYLQMNSLRPEDTAVYYCARARLLSRNCVPRDSGSWGQGTLVTVSS | – |
| ~0.0002 | 0.0696 | 0.0337 | 485000 | 2p442z10 humanized monoclonal antibody (antibody, V domains shown, Humanized monoclonal antibody captured on AHC biosensor; also called VHHz10) VH: QVQLVESGGGLVKPGGSLRLSCAASGFTFDYFAIGWFRQAPGKELEGVSCISGGGSTRYADSVKGRFTISRDNAKNSVYLQMNSLRPEDTAVYYCAAARLLSRNCVPRDSGSWGQGTLVTVSS | – |
| – | – | – | – | 42p155z2 humanized monoclonal antibody (antibody, V domains shown, Humanized monoclonal antibody captured on Protein A; also called VHHz2) VH: EVQLVESGGGLVQPGGSLRLSCAASGFAFRSYTMSWVRQAPGKGLEWVSTITHNGAITTYAESAQGRFTISRDNSKNTLYLQMNSLRAEDTAVYYCAQGGGSNYYRESWGQGTQVTVSS | Kd (human CD40-His protein [6]): 0.186 µM; koff (human CD40-His protein [6]): 0.0368 s⁻¹; kon (human CD40-His protein [6]): 198000 M⁻¹ s⁻¹ |
| – | – | – | – | 42p155z3 humanized monoclonal antibody (antibody, V domains shown, Humanized monoclonal antibody captured on Protein A; also called VHHz3) VH: EVQLVESGGGLVQPGGSLRLSCAASGFAFRSYTMSWVRQAPGKGLEWVSTITHNGAITTYAESAQGRFTISRDNSKNTLYLQMNSLRPEDTAVYYCAQGGGSNYYRESWGQGTQVTVSS | Kd (human CD40-His protein [6]): 0.193 µM; koff (human CD40-His protein [6]): 0.0555 s⁻¹; kon (human CD40-His protein [6]): 287000 M⁻¹ s⁻¹ |
| – | – | – | – | b12 (42p155z2) anti-5T4/CD40 bispecific antibody (bispecific antibody, human IgG1, kappa, N297A, also called 1+1 b12 format) heavy 1: EVQLQQSGPELVKPGASVKISCKASGYAFSSSWMNWVKQRPGKGLEWIGRIYREDGHTNYNGKFKGKATLTADKSSTTAYMQLTSLTSEDSAVYFCANGGAMDYWGQGTSVTVSSASTKGPSVFPLAPSSKSTSGGTAALGCLVKDYFPEPVTVSWNSGALTSGVHTFPAVLQSSGLYSLSSVVTVPSSSLGTQTYICNVNHKPSNTKVDKKVEPKSCDKTHTCPPCPAPELLGGPSVFLFPPKPKDTLMISRTPEVTCVVVDVSHEDPEVKFNWYVDGVEVHNAKTKPREEQYASTYRVVSVLTVLHQDWLNGKEYKCKVSNKALPAPIEKTISKAKGQPREPQVCTLPPSREEMTKNQVSLSCAVKGFYPSDIAVEWESNGQPENNYKTTPPVLDSDGSFFLVSKLTVDKSRWQQGNVFSCSVMHEALHNHYTQKSLSLSPGK light: DIQMTQSTSSLSASLGDRVTISCRASQDISNYLNWYQQKPDGTVKLLIYYTSRLHSGVPSRFSGSGSGTDYSLTISNLEQEDIATYFCQQDNTLPWTFGGGTKLEIKRTVAAPSVFIFPPSDEQLKSGTASVVCLLNNFYPREAKVQWKVDNALQSGNSQESVTEQDSKDSTYSLSSTLTLSKADYEKHKVYACEVTHQGLSSPVTKSFNRGEC heavy 2: not shown | binding result [7]: binds |
| – | – | – | – | b17 (42p155z2) anti-5T4/CD40 bispecific antibody (bispecific antibody, human IgG1, kappa, N297A, also called 1+2 b17 format) heavy 1: EVQLQQSGPELVKPGASVKISCKASGYAFSSSWMNWVKQRPGKGLEWIGRIYREDGHTNYNGKFKGKATLTADKSSTTAYMQLTSLTSEDSAVYFCANGGAMDYWGQGTSVTVSSASTKGPSVFPLAPSSKSTSGGTAALGCLVKDYFPEPVTVSWNSGALTSGVHTFPAVLQSSGLYSLSSVVTVPSSSLGTQTYICNVNHKPSNTKVDKKVEPKSCDKTHTCPPCPAPELLGGPSVFLFPPKPKDTLMISRTPEVTCVVVDVSHEDPEVKFNWYVDGVEVHNAKTKPREEQYASTYRVVSVLTVLHQDWLNGKEYKCKVSNKALPAPIEKTISKAKGQPREPQVCTLPPSREEMTKNQVSLSCAVKGFYPSDIAVEWESNGQPENNYKTTPPVLDSDGSFFLVSKLTVDKSRWQQGNVFSCSVMHEALHNHYTQKSLSLSPGKGGGGSGGGGSGGGGSGGGGSEVQLVESGGGLVQPGGSLRLSCAASGFAFRSYTMSWVRQAPGKGLEWVSTITHNGAITTYAESAQGRFTISRDNSKNTLYLQMNSLRAEDTAVYYCAQGGGSNYYRESWGQGTQVTVSS light: DIQMTQSTSSLSASLGDRVTISCRASQDISNYLNWYQQKPDGTVKLLIYYTSRLHSGVPSRFSGSGSGTDYSLTISNLEQEDIATYFCQQDNTLPWTFGGGTKLEIKRTVAAPSVFIFPPSDEQLKSGTASVVCLLNNFYPREAKVQWKVDNALQSGNSQESVTEQDSKDSTYSLSSTLTLSKADYEKHKVYACEVTHQGLSSPVTKSFNRGEC heavy 2: not shown | binding result [7]: binds |
